Source: article PMC12416549 (2024)

T1: TNFR1 (Homo sapiens, UniProt P19438)
T1 chain: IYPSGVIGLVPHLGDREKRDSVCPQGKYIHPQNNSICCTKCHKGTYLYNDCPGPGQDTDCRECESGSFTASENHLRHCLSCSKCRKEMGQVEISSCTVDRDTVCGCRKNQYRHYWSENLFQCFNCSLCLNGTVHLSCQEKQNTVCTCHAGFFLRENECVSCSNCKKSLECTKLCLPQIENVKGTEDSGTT


Target: T1, TNFR1
Test: yeast display SC50

apparent Kd (screen)	Binder
0.49 nM	K62C (designed binder) MTLQELLREEALRRAEAEAFRYALELLAEKFPEQKEYLLDLAEEIESQIRSLSGVDVEDVRCFLDKEWAWVKELLAEHPAELAEVEAARAARLAELRAEVEAKVAA
0.49 nM	E101W (designed binder) MTLQELLREEALRRAEAEAFRYALELLAEKFPEQKEYLLDLAEEIESQIRSLSGVDVEDVRKFLDKEWAWVKELLAEHPAELAEVEAARAARLAELRAEVWAKVAA
0.653 nM	A102Y (designed binder) MTLQELLREEALRRAEAEAFRYALELLAEKFPEQKEYLLDLAEEIESQIRSLSGVDVEDVRKFLDKEWAWVKELLAEHPAELAEVEAARAARLAELRAEVEYKVAA
4.83 nM	E86P (designed binder) MTLQELLREEALRRAEAEAFRYALELLAEKFPEQKEYLLDLAEEIESQIRSLSGVDVEDVRKFLDKEWAWVKELLAEHPAELAEVPAARAARLAELRAEVEAKVAA
0.49 nM	A91K (designed binder) MTLQELLREEALRRAEAEAFRYALELLAEKFPEQKEYLLDLAEEIESQIRSLSGVDVEDVRKFLDKEWAWVKELLAEHPAELAEVEAARAKRLAELRAEVEAKVAA
0.869 nM	F63W (designed binder) MTLQELLREEALRRAEAEAFRYALELLAEKFPEQKEYLLDLAEEIESQIRSLSGVDVEDVRKWLDKEWAWVKELLAEHPAELAEVEAARAARLAELRAEVEAKVAA
0.539 nM	R97I (designed binder) MTLQELLREEALRRAEAEAFRYALELLAEKFPEQKEYLLDLAEEIESQIRSLSGVDVEDVRKFLDKEWAWVKELLAEHPAELAEVEAARAARLAELIAEVEAKVAA
0.79 nM	A76H (designed binder) MTLQELLREEALRRAEAEAFRYALELLAEKFPEQKEYLLDLAEEIESQIRSLSGVDVEDVRKFLDKEWAWVKELLHEHPAELAEVEAARAARLAELRAEVEAKVAA
1.4 nM	L75G (designed binder) MTLQELLREEALRRAEAEAFRYALELLAEKFPEQKEYLLDLAEEIESQIRSLSGVDVEDVRKFLDKEWAWVKELGAEHPAELAEVEAARAARLAELRAEVEAKVAA
12.5 nM	W70R (designed binder) MTLQELLREEALRRAEAEAFRYALELLAEKFPEQKEYLLDLAEEIESQIRSLSGVDVEDVRKFLDKEWARVKELLAEHPAELAEVEAARAARLAELRAEVEAKVAA
0.653 nM	V85K (designed binder) MTLQELLREEALRRAEAEAFRYALELLAEKFPEQKEYLLDLAEEIESQIRSLSGVDVEDVRKFLDKEWAWVKELLAEHPAELAEKEAARAARLAELRAEVEAKVAA
0.718 nM	P79L (designed binder) MTLQELLREEALRRAEAEAFRYALELLAEKFPEQKEYLLDLAEEIESQIRSLSGVDVEDVRKFLDKEWAWVKELLAEHLAELAEVEAARAARLAELRAEVEAKVAA

The next lines start with the binder.

Binder	apparent Kd (screen)
F31Y (designed binder) MTLQELLREEALRRAEAEAFRYALELLAEKYPEQKEYLLDLAEEIESQIRSLSGVDVEDVRKFLDKEWAWVKELLAEHPAELAEVEAARAARLAELRAEVEAKVAA	0.593 nM
R61H (designed binder) MTLQELLREEALRRAEAEAFRYALELLAEKFPEQKEYLLDLAEEIESQIRSLSGVDVEDVHKFLDKEWAWVKELLAEHPAELAEVEAARAARLAELRAEVEAKVAA	1.4 nM
L7S (designed binder) MTLQELSREEALRRAEAEAFRYALELLAEKFPEQKEYLLDLAEEIESQIRSLSGVDVEDVRKFLDKEWAWVKELLAEHPAELAEVEAARAARLAELRAEVEAKVAA	13.8 nM
K30L (designed binder) MTLQELLREEALRRAEAEAFRYALELLAELFPEQKEYLLDLAEEIESQIRSLSGVDVEDVRKFLDKEWAWVKELLAEHPAELAEVEAARAARLAELRAEVEAKVAA	0.539 nM
E16H (designed binder) MTLQELLREEALRRAHAEAFRYALELLAEKFPEQKEYLLDLAEEIESQIRSLSGVDVEDVRKFLDKEWAWVKELLAEHPAELAEVEAARAARLAELRAEVEAKVAA	0.718 nM
A11W (designed binder) MTLQELLREEWLRRAEAEAFRYALELLAEKFPEQKEYLLDLAEEIESQIRSLSGVDVEDVRKFLDKEWAWVKELLAEHPAELAEVEAARAARLAELRAEVEAKVAA	0.405 nM
E33N (designed binder) MTLQELLREEALRRAEAEAFRYALELLAEKFPNQKEYLLDLAEEIESQIRSLSGVDVEDVRKFLDKEWAWVKELLAEHPAELAEVEAARAARLAELRAEVEAKVAA	0.539 nM
L26G (designed binder) MTLQELLREEALRRAEAEAFRYALEGLAEKFPEQKEYLLDLAEEIESQIRSLSGVDVEDVRKFLDKEWAWVKELLAEHPAELAEVEAARAARLAELRAEVEAKVAA	0.446 nM
L6C (designed binder) MTLQECLREEALRRAEAEAFRYALELLAEKFPEQKEYLLDLAEEIESQIRSLSGVDVEDVRKFLDKEWAWVKELLAEHPAELAEVEAARAARLAELRAEVEAKVAA	2.05 nM
L38T (designed binder) MTLQELLREEALRRAEAEAFRYALELLAEKFPEQKEYTLDLAEEIESQIRSLSGVDVEDVRKFLDKEWAWVKELLAEHPAELAEVEAARAARLAELRAEVEAKVAA	26.9 nM
R50S (designed binder) MTLQELLREEALRRAEAEAFRYALELLAEKFPEQKEYLLDLAEEIESQISSLSGVDVEDVRKFLDKEWAWVKELLAEHPAELAEVEAARAARLAELRAEVEAKVAA	0.653 nM
K35R (designed binder) MTLQELLREEALRRAEAEAFRYALELLAEKFPEQREYLLDLAEEIESQIRSLSGVDVEDVRKFLDKEWAWVKELLAEHPAELAEVEAARAARLAELRAEVEAKVAA	0.49 nM
L41Y (designed binder) MTLQELLREEALRRAEAEAFRYALELLAEKFPEQKEYLLDYAEEIESQIRSLSGVDVEDVRKFLDKEWAWVKELLAEHPAELAEVEAARAARLAELRAEVEAKVAA	0.718 nM
V57D (designed binder) MTLQELLREEALRRAEAEAFRYALELLAEKFPEQKEYLLDLAEEIESQIRSLSGVDDEDVRKFLDKEWAWVKELLAEHPAELAEVEAARAARLAELRAEVEAKVAA	3.99 nM
F31E (designed binder) MTLQELLREEALRRAEAEAFRYALELLAEKEPEQKEYLLDLAEEIESQIRSLSGVDVEDVRKFLDKEWAWVKELLAEHPAELAEVEAARAARLAELRAEVEAKVAA	0.49 nM
R50K (designed binder) MTLQELLREEALRRAEAEAFRYALELLAEKFPEQKEYLLDLAEEIESQIKSLSGVDVEDVRKFLDKEWAWVKELLAEHPAELAEVEAARAARLAELRAEVEAKVAA	0.539 nM
I49T (designed binder) MTLQELLREEALRRAEAEAFRYALELLAEKFPEQKEYLLDLAEEIESQTRSLSGVDVEDVRKFLDKEWAWVKELLAEHPAELAEVEAARAARLAELRAEVEAKVAA	0.539 nM
L41R (designed binder) MTLQELLREEALRRAEAEAFRYALELLAEKFPEQKEYLLDRAEEIESQIRSLSGVDVEDVRKFLDKEWAWVKELLAEHPAELAEVEAARAARLAELRAEVEAKVAA	15.2 nM
Y37S (designed binder) MTLQELLREEALRRAEAEAFRYALELLAEKFPEQKESLLDLAEEIESQIRSLSGVDVEDVRKFLDKEWAWVKELLAEHPAELAEVEAARAARLAELRAEVEAKVAA	12.5 nM
M1D (designed binder) DTLQELLREEALRRAEAEAFRYALELLAEKFPEQKEYLLDLAEEIESQIRSLSGVDVEDVRKFLDKEWAWVKELLAEHPAELAEVEAARAARLAELRAEVEAKVAA	0.446 nM
L27E (designed binder) MTLQELLREEALRRAEAEAFRYALELEAEKFPEQKEYLLDLAEEIESQIRSLSGVDVEDVRKFLDKEWAWVKELLAEHPAELAEVEAARAARLAELRAEVEAKVAA	0.869 nM
K35I (designed binder) MTLQELLREEALRRAEAEAFRYALELLAEKFPEQIEYLLDLAEEIESQIRSLSGVDVEDVRKFLDKEWAWVKELLAEHPAELAEVEAARAARLAELRAEVEAKVAA	2.48 nM
R8Y (designed binder) MTLQELLYEEALRRAEAEAFRYALELLAEKFPEQKEYLLDLAEEIESQIRSLSGVDVEDVRKFLDKEWAWVKELLAEHPAELAEVEAARAARLAELRAEVEAKVAA	1.05 nM
